Experimental data taken from patent US6855495B1, “Toso as a target for drug screening” (Rigel Pharmaceuticals, Inc., priority 1998, dated 2005).
Read-outs that look alike come from different tables or passages of the source.

Tests used:
[1] = tested on: 70Z/3 cells
[2] = Gamen et al. 1996; cited from earlier work
[3] = tested on: Jurkat.ecoR cells; assay: anti-Fas mAb-induced apoptosis in Jurkat.ecoR cells expressing the construct; type: cell-based, human; details: for anti-Fas mAb-induced apoptosis: 10 ng/ml anti-Fas mAb, 24 hours, in words
Description: Jurkat cells that express the receptor for ecotropic murine retroviruses (“Jurkat.ecoR”) were infected with retroviruses that express Toso and control vectors, pBabeMN-Toso, pBabeMN-lacZ and pBabeMN-Lyt-2-α′(α′ form of mouse CD8α chain) (Tagawa, et al. (1986)). Jurkat.ecOR cells were infected with pBabeMN-lacZ, pBabeMN-Lyt-2-α′, and pBabeMN-Toso. At 72 hours postinfection, infection frequency of pBabeMN-lacZ and pBabeMN-Lyt-2α′ were determined to be 45% and 58%, respectively. Jurkat cells were then cultured with 10 ng/ml anti-Fas mAb for 24 hours. After 12 or 24 hours, the cells were stained with 100 μg/ml ethidium bromide (SIGMA) and 100 μg/ml acridine orange (SIGMA). Apoptotic cells and non-apoptotic cells were identified with UV microscopy as described (MacGahon, et al., The End of the (Cell) Line: Methods for the Study of Apoptosis in vitro, in Methods in cell biology, L. J. Schwartz and B. A. Osborne, eds., San Diego, Calif., Academic Press, Inc., pp. 172-173 (1995)).
Jurkat.ecOR cells were infected with pBabeMN-Lyt-2-α′. HA, pBabeMN-Toso. HA, pBabeMN-TosoΔ(377-390). HA, pBabeMN-TosoΔ(334-390). HA, pBabeMN-TosoΔ(281-390).HA, pBabeMNTosoΔ(252-390).HA and pBabeMN-TosoΔ(29-187).HA. Jurkat cells were cultured with 10 ng/ml anti-Fas mAb for 24 hours and apoptotic cells were counted. […] Deletions of regions of the cytoplasmic domain of Toso from 334 to 390 still inhibited apoptosis. Moreover, a deletion of Toso lacking the entire cytoplasmic domain still retained substantial anti-apoptotic ability. Thus, the cytoplasmic domain of Toso is not absolutely required for the anti-apoptotic effects on Fas antibody-stimulated cells.

[4] = tested on: Jurkat.ecoR cells; assay: staurosporine- and ceramide-induced apoptosis in Jurkat.ecoR cells; type: cell-based, human; details: 24 hours, any concentration
Description: Jurkat cells that express the receptor for ecotropic murine retroviruses (“Jurkat.ecoR”) were infected with retroviruses that express Toso and control vectors, pBabeMN-Toso, pBabeMN-lacZ and pBabeMN-Lyt-2-α′(α′ form of mouse CD8α chain) (Tagawa, et al. (1986)). Jurkat.ecOR cells were infected with pBabeMN-lacZ, pBabeMN-Lyt-2-α′, and pBabeMN-Toso. At 72 hours postinfection, infection frequency of pBabeMN-lacZ and pBabeMN-Lyt-2α′ were determined to be 45% and 58%, respectively. Jurkat cells were then cultured with 10 ng/ml anti-Fas mAb for 24 hours. After 12 or 24 hours, the cells were stained with 100 μg/ml ethidium bromide (SIGMA) and 100 μg/ml acridine orange (SIGMA). […]
Staurosporine is a bacterial alkaloid that is a broad spectrum inhibitor of protein kineses (Tamaoki and Nakano, Biotechnology, 8:732-735 (1990)) and induces programmed cell death in various cell lines and dissociated primary cells in culture (Ishizaki, et al, J. Cell Biol., 121:899-908 (1993); Jacobson, et al., Nature, 361:365-369 (1993); Raff, et al., Science. 262:695-700 (1993)). Ceramide generation is implicated in a signal transduction pathway that mediates programmed cell death induced by Fas and TNF-α (Cifone, et al., J. Exp. Med., 180:1547-1552 (1994); Obeid, et al., Science, 259:1769-1771 (1993)). pBabeMN-LacZ infected cells were counted by microscopic observation; infection frequency was determined to be 57%. […]

[5] = tested on: caspase-8; assay: Western blot of caspase-8 processing after Fas activation; type: cell-based, human; details: 50 ng/ml anti-Fas mAb, 6 hours, versus control Jurkat.ecoR cells
Description: The effect of overexpression of Toso on processing of caspase-8, which associates with FADD, was evaluated. […] To detect caspase-8, whole-cell lysates (2×10^6 cells per lane) were resolved by SDS-PAGE, transferred to an membrane and processed with goat anti-Mch5 p20 antibody (Santa Cruz Biotechnology, Inc., Santa Cruz, Calif. 95060, U.S.A.) as described above.

[6] = tested on: Bcl-2 and Bcl XL; assay: Western blot of Bcl-2 and Bcl XL expression levels in Toso expressing cells; type: cell-based, human; details: data not shown
Description: The downstream effects of Toso on known inhibitors of apoptosis, were evaluated by western blot analysis of Bcl-2 and BCI XL expression levels in Toso expressing cells. Bcl-2 overexpression can block Fas-induced apoptosis as well as staurosporine-induced apoptosis (data not shown). No change in the levels of expression of Bcl-2 or BcI XL was observed by Western blot (data not shown).

[7] = tested on: cFLIP; assay: semi-quantitative RT-PCR of cFLIP mRNA expression; type: cell-based, human; details: Jurkat.ecoR cells
From the text: Recently several groups have reported cFLIP is a caspase-8 inhibitor. We performed semi-quantitative RT-PCR to detect […] expression. To detect […] expression, a 1.1 kbp fragment (998-2061) of the cFLIP gene (U97074) was amplified with primers 5'-[NT] ID NO:32) and 5'-[NT] ID NO:33) for 35 cycles as described above. The sequence of the 1.1 kbp PCR product was verified using cycle sequencing ready reaction kit (Perkin Elmer, Calif. 94404, U.S.A.).

[8] = tested on: Jurkat.ecoR cells; assay: PMA/Ionomycin-induced apoptosis in Jurkat.ecoR clones; type: cell-based, human; details: five pBabeMN-Toso-infected clones; 10 ng/ml PMA and 500 ng/ml Ionomycin, 24 hours
From the text: However, following activation with PMA/lonomycin one third of Jurkat cells were clearly resistant to anti-Fas mAb induced apoptosis.
We further tested whether Toso expression could rescue activation-induced programmed cell death. We randomly picked five pBabeMN-Toso-infected Fas resistant Jurkat T cell clones and used these to assay the inhibitory effect of Toso on PMA/lonomycin-induced apoptosis.

[9] = tested on: human cell lines; assay: anti-Fas mAb-induced apoptosis in several human cell lines overexpressing Toso; type: cell-based; details: data not shown
From the text: Toso was expressed in several human cell lines including Jurkat cells, CemT4 cells (human T cell leukemia), SupT1 cells (human T cell leukemia, a kind gift from Dr. Cleary, M. L., Stanford Univ.), Oli-Ly8 cells (human B cell line; transformed with EBV), AMK cells (human B cell line; transformed with EBV), both a gift from Dr. Negrin, R. S., Stanford Univ., Reh cells (acute lymphocytic leukemia; non T; non B), HL-60 cells (promyelocytic leukemia) and HepG2 cells (hepatoma) using pBabeMN-Toso IRES neo to allow cotranslational selection with Geneticin (GIBCO BRL).

[10] = tested on: Jurkat.ecoR cells; assay: FADD-induced apoptosis in Jurkat.ecoR cells; type: cell-based, human; details: 24 hours postinfection with pBabeMN-FADD
Description: Fas-mediated apoptosis is activated through FADD. For FADD-induced apoptosis, mouse FADD (a gift from Dr. Angeles Estelles, Dept. Mol. Pharm., Stanford Univ.) was ligated into pBabeMN retroviral vector. Jurkat.ecoR cells expressing Lyt-2-α′ or Toso were infected with pBabeMN-LacZ or pBabeMN-FADD. After 24 hours infection with FADD, the cells were stained with ethidium bromide and acridine orange and counted the apoptotic cells. The effect of Toso on FADD-induced apoptosis was investigated by infecting Jurkat.ecoR cells expressing Lyt-2-α′ or Toso, with pBabeMN-LacZ or pBabeMN-FADD. The reinfection efficiency was approximately 40% using pBabeMN-LacZ. Jurkat.ecoR cells were infected with pBabeMN-Lyt-2-α′ and pBabeMN-Toso. Infection frequency of pBabeMN-Lyt-2-α′ was determined to be 72%. Jurkat.ecoR cells expressing Lyt-2-α′ or Toso were infected with pBabeMNLacZ or pBabeMN-FADD and apoptotic cells were counted at 24 hourrs postinfection. Infection frequency of pBabeMN-lacZ in Jurkat.ecoR cells expressing Lyt-2-α′ and Toso was determined to be 39% and 43%, respectively.

[11] = tested on: Jurkat.ecoR cells; assay: TNF-α-induced apoptosis in Jurkat.ecoR cells; type: cell-based, human; details: 1 μg/ml TNF-α with 0.1 μg/ml CHX, 12 hours, versus Lyt-2-α′
Description: The Fas receptor has homology to the TNF-α receptor, and these two receptors share analogous signaling systems as well as several intracellular mediators (Hsu, et al., Cell, 84:299-308 (1996)). The protective effect of Toso against TNF-α-induced apoptosis was tested by culturing Jurkat.ecOR cells expressing Lyt-2-α′ or Toso with 10 ng/ml of anti-Fas mAb or 1 μg/ml of TNF-α in the presence of 0.1 μg/ml of cyclohexamide (CHX) for 12 hours and apoptotic cells were counted. The infection frequency of pBabeMN-Lyt-2-α′ was determined to be 58%. […] Thus the TNF-α and Fas signaling pathways may converge at a common point that can be inhibited by Toso.

Lyt-2: full length Lyt-2 (mouse CD8α), control [reference compound]
massive / rapid cell death in 70Z/3 cells ([1]; after retroviral infection, in words): did not induce rapid cell death

DEVD-CHO
ceramide-induced apoptosis [2]: does not inhibit

B1: 4.8.HA: full-length Toso with C-terminal influenza hemagglutinin (HA) tag (protein)
chain: RILPEVKVEGELGGSVTIKCPLPEMHVRIYLCREMAGSGTCGTVVSTTNFIKAEYKGRVTLKQYPRKNLFLVEVTQLTESDSGVYACGAGMNTDRGKTQKVTLNVHSEYEPSWEEQPMPETPKWFHLPYLFQMPAYASSSKFVTRVTTPAQRGKVPPVHHSSPTTQITHRPRVSRASSVAGDKPRTFLPSTTASKISALEGLLKPQTPSYNHHTRLHRQRALDYGSQSGREGQGFHILIPTILGLFLLALLGLVVKRAVERRKALSRRARRLAVRMRALESSQRPRGSPRPRSQNNIYSACPRRARGADAAGTGEAPVPGPGAPLPPAPLQVSESPWLHAPSLKTSCEYVSLYHQPAAMMEDSDSDDYINVPA
modifications: left off: small tags and cut ends
notes: full-length Toso with C-terminal influenza hemagglutinin (HA) tag
anti-Fas mAb-induced apoptosis [3]: markedly inhibited
% Viable Cells [1]: 30 ± 4%
massive / rapid cell death in 70Z/3 cells [1]: massive cell death was observed

B2: Toso: novel 390-amino acid Ig superfamily type 1 membrane protein (SEQ ID NO:2), expressed from retroviral vector pBabeMN (protein, listed as Homo sapiens)
chain: MDRWLWPLYFLPVSGALRILPEVKVEGELGGSVTIKCPLPEMHVRIYLCREMAGSGTCGTVVSTTNFIKAEYKGRVTLKQYPRKNLFLVEVTQLTESDSGVYACGAGMNTDRGKTQKVTLNVHSEYEPSWEEQPMPETPKWFHLPYLFQMPAYASSSKFVTRVTTPAQRGKVPPVHHSSPTTQITHRPRVSRASSVAGDKPRTFLPSTTASKISALEGLLKPQTPSYNHHTRLHRQRALDYGSQSGREGQGFHILIPTILGLFLLALLGLVVKRAVERRKALSRRARRLAVRMRALESSQRPRGSPRPRSQNNIYSACPRRARGADAAGTGEAPVPGPGAPLPPAPLQVSESPWLHAPSLKTSCEYVSLYHQPAAMMEDSDSDDYINVPA
ceramide-induced apoptosis [4]: not resistant
staurosporine-induced apoptosis [4]: not resistant
processed form (p20) of FLICE after Fas activation [5]: greatly reduced
levels of expression of Bcl-2 or Bcl XL [6]: No change
cFLIP expression [7]: induced
PMA/Ionomycin-induced apoptosis [8]: significant resistance
Fas induced apoptosis in the presence of CHX ([3]; 10 ng/ml anti-Fas mAb with 0.1 μg/ml CHX, 12 hours): inhibited Fas induced apoptosis
anti-Fas mAb-induced apoptosis [3]: resistant to Fas-mediated apoptosis over a range of antiFas dilutions
surviving Jurkat cells that expressed GFP ([3]; pBabeMN-Toso-IRES-GFP-infected cells, five days with 50 ng/ml anti-Fas mAb): 99.7%
dead cells after infection ([1]; 70Z/3 cells infected with pBabeMN-Toso): about 70%
apoptosis induced by anti-Fas mAb ([9]; all human T cell lines and B cell line Ocl-Ly8): inhibited
protection against Fas-induced apoptosis ([9]; the other cell lines): no significant protection
FADD-induced apoptosis in cells constitutively expressing the construct [10]: failed to induce apoptosis
TNF-α-induced apoptosis [11]: protected against TNF-α-induced apoptosis

B3: FADD: mouse FADD expressed from the pBabeMN retroviral vector, apoptosis inducer (protein, UniProt Q61160 1-205, looked up)
FAS-associated death domain …: MDPFLVLLHSLSGSLSGNDLMELKFLCRERVSKRKLERVQSGLDLFTVLLEQNDLERGHTGLLRELLASLRRHDLLQRLDDFEAGTATAAPPGEADLQVAFDIVCDNVGRDWKRLARELKVSEAKMDGIEEKYPRSLSERVRESLKVWKNAEKKNASVAGLVKALRTCRLNLVADLVEEAQESVSKSENMSPVLRDSTVSSSETP
apoptosis induced in control Jurkat cells [10]: 45%
